The values that follow come from patent EP4420676A1 (Medizinische Hochschule Hannover, dated 2024).

Assay [1] addresses T1, human DGCR2 expressed on HEK293T cells (human, UniProt P98153 21-550).
T1 construct: Transiently expressed on HEK293T cells from a vector with eGFP downstream of a P2A site; also called human antigen; DiGeorge Syndrom Critical Region 2
T1 sequence: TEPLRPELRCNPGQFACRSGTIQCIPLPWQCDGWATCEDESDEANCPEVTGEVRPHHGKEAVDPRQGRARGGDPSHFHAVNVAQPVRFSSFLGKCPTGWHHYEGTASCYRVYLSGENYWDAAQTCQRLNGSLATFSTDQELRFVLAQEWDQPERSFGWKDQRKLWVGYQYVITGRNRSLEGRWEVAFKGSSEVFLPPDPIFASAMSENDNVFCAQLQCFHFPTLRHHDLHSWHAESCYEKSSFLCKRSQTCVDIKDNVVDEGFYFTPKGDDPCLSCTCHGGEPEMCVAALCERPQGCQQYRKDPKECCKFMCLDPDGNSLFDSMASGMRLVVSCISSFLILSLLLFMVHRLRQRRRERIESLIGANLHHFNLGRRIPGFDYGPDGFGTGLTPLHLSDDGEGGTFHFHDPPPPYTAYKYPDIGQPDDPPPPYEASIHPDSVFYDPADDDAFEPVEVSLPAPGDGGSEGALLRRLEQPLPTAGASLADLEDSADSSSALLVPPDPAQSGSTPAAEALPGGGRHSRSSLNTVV
As to the kind of experiment: flow cytometry, soluble scFv on transfected HEK293T cells (figure legend).

Assay [2] has as its target T2, murine DGCR2 expressed on HEK293T cells (mouse, UniProt P98154 25-548).
T2 construct: Transiently expressed on HEK293T cells from a vector with eGFP downstream of a P2A site; also called mouse DGCR2; murine antigen
T2 sequence: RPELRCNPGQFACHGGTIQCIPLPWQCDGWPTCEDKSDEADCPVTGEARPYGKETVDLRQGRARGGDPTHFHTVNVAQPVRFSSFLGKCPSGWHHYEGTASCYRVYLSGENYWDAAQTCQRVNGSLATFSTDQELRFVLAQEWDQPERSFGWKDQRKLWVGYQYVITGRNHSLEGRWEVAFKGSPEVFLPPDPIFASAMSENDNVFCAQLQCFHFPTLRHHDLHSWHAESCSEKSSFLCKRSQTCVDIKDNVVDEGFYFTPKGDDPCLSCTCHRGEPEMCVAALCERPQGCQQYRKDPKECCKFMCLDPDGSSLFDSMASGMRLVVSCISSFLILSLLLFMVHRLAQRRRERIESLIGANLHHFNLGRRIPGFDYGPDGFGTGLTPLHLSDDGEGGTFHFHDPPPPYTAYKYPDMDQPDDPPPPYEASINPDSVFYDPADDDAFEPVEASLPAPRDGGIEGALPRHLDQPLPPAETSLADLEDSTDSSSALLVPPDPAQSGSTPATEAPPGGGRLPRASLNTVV
Briefly: flow cytometry, soluble scFv on transfected HEK293T cells, anti-His PE. Background: In flow cytometry, cells or beads pass a laser one at a time.

Assay [3] concerns the target T2, murine DGCR2 expressed on HEK293T cells. Briefly: flow cytometry, soluble scFv on transfected HEK293T cells (figure legend).

B1: tpi010-A5 scFv (scFv)
scFv: EVQLVESGGGLVQPGGSLRLSCAASGFTVSSNYMSWVRQAPGKGLEWVSVIYSGGSTYYADSVKGRFTISRDNAKNSLYLQMNSLRAEDTAVYYCARGWTTFDYWGQGTLVTVSSGSASAPKLEEGEFSEARVQAVLTQPPSLSVSPRQTVTITCSGDQLGDRYVSWYQQKPGQSPMLVIYQDDRRPSGVPERFSGSNSGNTATLTIGGTQAMDQADYYCQTWDNSPVVFGGGTKLTVLGQPKAAPSVTLFPPSSAAAGSEQKLISEEDLSHHHHHH
notes: Soluble scFv produced in E. coli
Consider B1, for which the binding result in assay [1] and in assay [2] was “binds” throughout.

B2: UK018-G3 scFv (scFv)
scFv: QVQLVQSGGGVVQPGRSLRLSCAASGFTFSSYGMHWVRQAPGKGLEWVAVISYDGSNKYYADSVKGRFTISRDNSKNTLYLQMNSLRAEDTAVYYCAKDRGAVAGTDWYFDLWGRGTLVTVSSGSASAPKLEEGEFSEARVSSELTQDPAVSVALGQTVRITCQGDSLRSYYASWYQQKPGQAPVLVIYGKNNRPSGIPDRFSGSSSGNTASLTITGAQAEDEADYYCNSRDSSGNHVVFGGGTKLTVLGQPKAAPSVTLFPPSSAAAGSEQKLISEEDLSHHHHHH
notes: as for B1
On to B2, for which the binding result in assay [3] and in assay [1] was “binds” throughout.

B3: UK018-G9 scFv (scFv)
scFv: QVQLVQSGGGLVQPGGSLRLSCAASGFTFSSYSMSWVRQAPGKGLEWVLGITRGGNTFYADSVTGRFTISRDISKNTVFLQMDSLRVEDTAIYYCAKDWTMSGINVFDTWGQGTLVTVSSGSASAPKLEEGEFSEARVQAVLTQPPSVSGSPGQSVTISCTGTSSDVGAYNRVSWYQQPPGTAPKLMIYEVNNRPSGVPDRFSGSKSGNTASLTISGLQAEDEADYYCSSSTTSSTYVFGTGTKVTVLGQPKANPTVTLFPPSSAAAGSEQKLISEEDLSHHHHHH
notes: as for B1
With B3, the binding result in assay [3] and in assay [1] was “binds” each time.
